The target of this assay is aggrecan (core protein carrying chondroitin sulfate chains) made by rat chondrosarcoma LTC cells (rat) (UniProt P07897).

Two substances from patent US20070203087A1 can be followed below.

“human chondroitin sulfate glucuronyltransferase (enzyme)” returned a chondroitin sulfate synthesis activity (35S sulfate label in chondroitinase ABC-digested GAG fractions of transfected LTC cells and culture medium) of 1.6 fold.
The same measure for “human chondroitin sulfate N-acetylgalactosaminyltransferase-1 (enzyme)”: 2.2 fold.
